Measured values: US11046981B2, “Host cell modified to produce lactams” (The Regents of the University of California, priority 2016, dated 2021)

Legend:
[1] = molecular target: T1, ORF27 (Streptomyces aizunensis, UniProt Q52V65); assay: ATP-PPi release assay for ORF27 (substrate range, steady state parameters); type: biochemical; conditions: substrates with a negatively charged group on the ω-terminal end
T1 sequence (Q52V65 1-470): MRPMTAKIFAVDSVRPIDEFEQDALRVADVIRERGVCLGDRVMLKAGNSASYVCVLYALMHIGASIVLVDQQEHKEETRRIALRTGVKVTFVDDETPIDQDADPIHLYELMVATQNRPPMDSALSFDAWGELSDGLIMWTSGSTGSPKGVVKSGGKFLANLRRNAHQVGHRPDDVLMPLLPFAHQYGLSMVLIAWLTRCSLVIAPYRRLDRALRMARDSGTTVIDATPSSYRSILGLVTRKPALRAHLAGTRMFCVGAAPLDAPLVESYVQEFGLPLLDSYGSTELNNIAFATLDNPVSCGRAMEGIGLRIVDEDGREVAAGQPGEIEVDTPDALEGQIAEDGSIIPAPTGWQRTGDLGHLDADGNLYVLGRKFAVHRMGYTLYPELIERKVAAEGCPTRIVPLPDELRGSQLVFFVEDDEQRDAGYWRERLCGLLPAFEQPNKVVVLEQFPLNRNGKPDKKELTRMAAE
Procedure: The substrate range of ORF27 was determined by ATP-PPi release assays as previously described (12). Without prior knowledge about the reaction pathways, the ATP-PPi assay served a semi-quantitative method to compare substrate induced acceleration of ATP consumption. For kinetic investigation of ORF27 activity with different substrates, the inorganic pyrophosphate released by enzymatic reaction was measured continuously using the EnzChek Pyrophosphate Assay Kit (Invitrogen). A typical assay contained in a total volume of 150 μL: 5 μM of ORF27, 0-20 mM substrates, 1 mM ATP, 1 mM CoASH and 1 mM Mg(Cl)2 in 100 mM HEPES, pH 7.5. 2-amino-6-mercapto-7-methylpurine ribonucleoside (MESG) substrate, purine nucleoside phosphorylase and inorganic pyrophosphatase were added according to the protocol. Reactions were initiated by the addition of ATP and monitored at 360 nm with SpectraMax M2 (Molecular Devices, Sunnyvale, Calif.). Initial velocities were calculated using the standard curve for inorganic pyrophosphate. For each concentration, control reactions were carried out without enzyme or without ATP. The rates of PPi release were converted to observed rates, and the Michaelis-Menten kinetic parameters were obtained. […]
The sensitivity of the ATP-PPi release assay (5 μM Pi) allowed the initial velocity to be determined within the first 2 min of reaction incubation. […]

[2] = molecular target: T1, ORF27; assay: In vitro ORF27 lactam formation with ATP or ADP, product analysis by HPLC-MS; type: biochemical; conditions: ADP instead of ATP to activate ω-amino fatty acids
Procedure: (§1) To compare formation of various lactams by ORF27, a reaction mixture containing […] of ORF27, 5 mM ω-amino fatty acids substrates, 1 mM ATP or ADP, 0.5 mM CoASH and 1 mM Mg(CI)2 in 100 mM HEPES (pH=8) was incubated at 25° C. The reactions were quenched by addition of methanol to a final concentration of 50% (v/v) at multiple time points (0 min, 15 min, 1 h, 2 h, 4 h and 19 h). The resulting quenched reactions were kept at 4° C. and filtered through 10 K Amicon Ultra-0.5 mL Centrifugal Filters (Millipore) at 8000×g for 30 min. The filtered solutions were analyzed for lactams and nucleotides using HPLC-MS. Control reactions were carried out without enzyme, without substrate, without ATP, without CoASH or without MgCl2 (supplying additional 0.2 mM EDTA to chelate Mg^2+ ions from purified protein stock). Caprolactam, valerolactam and butyrolactam, AMP, ADP and ATP were purchased as standards from Sigma-Aldrich. The pH dependence of ORF27-catalyzed butrylactam formation was determined using an end-point assay, and the amount of butyrolactam was determined using the HPLC-MS method described above.
The ORF27-catalyzed lactam formation reaction in vitro was monitored for both nucleotide and lactam products, using either ATP or ADP as the energy source. […] In the absence of ORF27, ATP remained stable throughout the reaction (FIG. 6A). […]

[3] = Solubility noted during preparation of substrate stock solution; type: physicochemical; conditions: under neutral pH; HCl added to obtain 100 mM stock solution in pH ~2.0
From the text: (§2) The acids assayed were glutamic acid, γ-aminobutyrate (GABA), 4-guanidinobutyric acid, (S)-3-hydroxyl-butyric acid, valeric acid, 4-methyl-hexanoic acid, 3-aminobutyric acid, 6-aminocaproic acid, 6-guanidinohexanoic acid, glutaric acid, adipic acid, 2-aminobutyric acid and (Sigma-Aldrich, St. Louis, Mo.).

[4] = pH profile of ORF27 catalyzed butyrolactam formation (end-point assay); type: biochemical
Procedure: FIG. 8. pH profile of ORF27 catalyzed butyrolactam formation. A reaction mixture containing 5 μM ORF27, 1 mM GABA, 1 mM ATP, 1 mM CoASH and 1 mM Mg(Cl)2 in 100 mM HEPES (pH 7.5) was incubated at 25° C. for 30 min. The reaction was quenched by equal volume of methanol, and the filtered solution was analyzed by analytical method described above.
as §1, with “Caprolactam, valerolactam and butyrolactam, AMP, ADP and ATP were purchased as standards from Sigma-Aldrich.” left out

[5] = substrate: N=C(N)NCCCC(=O)O; assay: ATP-PPi release assay for ORF27 (substrate range, steady state parameters); type: biochemical, Streptomyces aizunensis; conditions: other: 100 mM HEPES, pH 7.5 at 25° C.
Procedure: (§3) The substrate range of ORF27 was determined by ATP-PPi release assays as previously described (12). Without prior knowledge about the reaction pathways, the ATP-PPi assay served a semi-quantitative method to compare substrate induced acceleration of ATP consumption. For kinetic investigation of ORF27 activity with different substrates, the inorganic pyrophosphate released by enzymatic reaction was measured continuously using the EnzChek Pyrophosphate Assay Kit (Invitrogen). A typical assay contained in a total volume of 150 μL: 5 μM of ORF27, 0-20 mM substrates, 1 mM ATP, 1 mM CoASH and 1 mM Mg(Cl)2 in 100 mM HEPES, pH 7.5. 2-amino-6-mercapto-7-methylpurine ribonucleoside (MESG) substrate, purine nucleoside phosphorylase and inorganic pyrophosphatase were added according to the protocol. Reactions were initiated by the addition of ATP and monitored at 360 nm with SpectraMax M2 (Molecular Devices, Sunnyvale, Calif.). Initial velocities were calculated using the standard curve for inorganic pyrophosphate. For each concentration, control reactions were carried out without enzyme or without ATP. The rates of PPi release were converted to observed rates, and the Michaelis-Menten kinetic parameters were obtained.
as §2
(§4) The sensitivity of the ATP-PPi release assay (5 μM Pi) allowed the initial velocity to be determined within the first 2 min of reaction incubation. During this time period, ATP hydrolysis activity by ORF27 was not observed according to the ATP-PPi assay (ATP hydrolysis was observed over longer period of time though, see discussion below).

[6] = substrate: CCC(N)C(=O)O; assay: as above; type: biochemical, Streptomyces aizunensis; conditions: other: 100 mM HEPES, pH 7.5 at 25° C.
Procedure: as §3, §2, §4

[7] = substrate: CCC(C)CCC(=O)O; assay: as above; type: biochemical, Streptomyces aizunensis; conditions: other: 100 mM HEPES, pH 7.5 at 25° C.
Procedure: as §3, §2, §4

[8] = substrate: NCCCCCC(=O)O; assay: as above; type: biochemical, Streptomyces aizunensis; conditions: other: 100 mM HEPES, pH 7.5 at 25° C.
Procedure: as §3, §2, §4

[9] = substrate: N=C(N)NCCCCCC(=O)O; assay: as above; type: biochemical, Streptomyces aizunensis; conditions: other: 100 mM HEPES, pH 7.5 at 25° C.
Procedure: as §3, §2, §4

[10] = substrate: CCCCC(=O)O; assay: as above; type: biochemical, Streptomyces aizunensis; conditions: other: 100 mM HEPES, pH 7.5 at 25° C.
Procedure: as §3, §2, §4

[11] = substrate: NCCCC(=O)O; assay: as above; type: biochemical, Streptomyces aizunensis; conditions: other: 100 mM HEPES, pH 7.5 at 25° C.
Procedure: as §3, §2, §4

Molecule: O=C(O)CCCC(=O)O [glutaric acid, Glutaric acid]
- enzyme activity of ORF27 on the substrate [1]: not observed

Molecule: O=C(O)CCCCC(=O)O [adipic acid, Adipic acid]
- enzyme activity of ORF27 on the substrate [1]: not observed

Molecule: Nc1ncnc2c1ncn2[C@@H]1O[C@H](COP(=O)(O)OP(=O)(O)O)[C@@H](O)[C@H]1O [ADP]
- rate of lactam formation with ADP relative to the similar reaction with ATP [2]: 20-50%

Molecule: N=C(N)NCCCCCC(=O)O [6-Guanidinohexanoic acid]
- solubility [3]: low solubility

B1: ORF27 (Streptomyces aizunensis) (protein)
chain: MRPMTAKIFAVDSVRPIDEFEQDALRVADVIRERGVCLGDRVMLKAGNSASYVCVLYALMHIGASIVLVDQQEHKEETRRIALRTGVKVTFVDDETPIDQDADPIHLYELMVATQNRPPMDSALSFDAWGELSDGLIMWTSGSTGSPKGVVKSGGKFLANLRRNAHQVGHRPDDVLMPLLPFAHQYGLSMVLIAWLTRCSLVIAPYRRLDRALRMARDSGTTVIDATPSSYRSILGLVTRKPALRAHLAGTRMFCVGAAPLDAPLVESYVQEFGLPLLDSYGSTELNNIAFATLDNPVSCGRAMEGIGLRIVDEDGREVAAGQPGEIEVDTPDALEGQIAEDGSIIPAPTGWQRTGDLGHLDADGNLYVLGRKFAVHRMGYTLYPELIERKVAAEGCPTRIVPLPDELRGSQLVFFVEDDEQRDAGYWRERLCGLLPAFEQPNKVVVLEQFPLNRNGKPDKKELTRMAAE
- pH below which the enzyme precipitated and became inactive [4]: below 6.0
- pH optimum [4]: 8.0
- Km [5]: 13 µM
- kcat [5]: 0.002 s⁻¹
- kcat/Km [5]: 157 M⁻¹ s⁻¹
- Km [6]: 1630 µM
- kcat [6]: 0.0006 s⁻¹
- kcat/Km [6]: 0.37 M⁻¹ s⁻¹
- Km [7]: 12100 µM
- kcat [7]: 0.0217 s⁻¹
- kcat/Km [7]: 1.8 M⁻¹ s⁻¹
- Km [8]: 56 µM
- kcat [8]: 0.00283 s⁻¹
- kcat/Km [8]: 49.4 M⁻¹ s⁻¹
- Km [9]: 110 µM
- kcat [9]: 0.0055 s⁻¹
- kcat/Km [9]: 49 M⁻¹ s⁻¹
- Km [10]: 52200 µM
- kcat [10]: 0.0283 s⁻¹
- kcat/Km [10]: 0.543 M⁻¹ s⁻¹
- Km [11]: 17200 µM
- kcat [11]: 0.00583 s⁻¹
- kcat/Km [11]: 0.338 M⁻¹ s⁻¹
